Results: US20230134580A1 (SHANGHAI HENLIUS BIOTECH, published 2023)
Like-named read-outs stand apart in the source and are kept apart here.

What was measured:
[1] = biological target: T1, human TIGIT (T cell immunoreceptor with Ig and ITIM domains), expressed on cells (human, UniProt Q495A1 22-244); experiment: cell-based or functional assay
T1 sequence: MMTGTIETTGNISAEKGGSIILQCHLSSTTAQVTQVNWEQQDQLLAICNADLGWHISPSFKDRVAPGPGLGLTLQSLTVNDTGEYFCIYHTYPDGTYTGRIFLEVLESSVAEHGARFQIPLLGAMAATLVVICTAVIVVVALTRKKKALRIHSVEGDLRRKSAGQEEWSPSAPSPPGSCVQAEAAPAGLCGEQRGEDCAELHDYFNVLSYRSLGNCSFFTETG

[2] = biological target: T1, human TIGIT (T cell immunoreceptor with …); experiment: cell-based or functional assay; remark: listed apart in the source
[3] = biological target: T1, human TIGIT (T cell immunoreceptor with …); experiment: whole cell binding assays, n=3 (FIG. 10A)
Description: Jurkat cells stably expressing human TIGIT and NFAT reporter gene were established. Specifically, Jurkat cells were transfected with human TIGIT expression vector by electroporation, and cells stably expressing human TIGIT were selected by 1 μg/ml puromycin during cell culture. Representative antibody clones were incubated at different concentrations with h-TIGIT stably expressing Jurkat cells (0.2×10^6/ml) in 100 μl/well in 96-well plate in FACS buffer (PBS with 1.5% FBS) for 30 min. After washing, Alexaflour 488 conjugated anti-human IgG Fc secondary antibody (Alexa Fluor® 488 AffiniPure Goat Anti-Human IgG, Fcγ fragment specific, Jackson labs, 1:500 dilution) was added and incubated for 30 min. After washing, mean fluorescence intensity was measured using CytoFlex (Beckman Coulter) by gating live cell population. Binding affinity was calculated using GraphPad Prism.

[4] = biological target: T1, human TIGIT (T cell immunoreceptor with …); experiment: cell-based or functional assay; remark: listed apart in the source

B1: Bivalent 2A3 antibody (2A3-Fc) (Fc fusion)
chain: QVQLVESGGGVVQPGRSLRLSCAASGGSFSSYPMGWFRQAPGKERESVAAISSDMRFTYYADSVKGRFTISRDNSKNTLYLQMNSLRAEDTAVYYCAARDSGVGYYSRAQWYDYWGQGTLVTVSS
notes: ExpiCHO, protein A purified; also called 2A3 clone; parental 2A3-Fc; not shown: human IgG1 CH2 and CH3 domains
EC50 (read off the curve), NFAT luciferase reporter, TIGIT blockade [1]: ~0.7 nM | EC50 (read off the curve), NFAT luciferase reporter, TIGIT blockade [2]: ~1 nM | EC50 [3]: 0.32 nM | EC50, NFAT luciferase reporter assay (n=3) [4]: 0.48 nM
